Test results published in patent US20100190689.

Tests used:
Assay in all cases: filter
MBNL1-42 (Homo sapiens) = target: T1, MBNL1-42 (Homo sapiens) (UniProt Q9NR56); conditions: stated collectively for 41 and 42 kD isoforms
T1 sequence: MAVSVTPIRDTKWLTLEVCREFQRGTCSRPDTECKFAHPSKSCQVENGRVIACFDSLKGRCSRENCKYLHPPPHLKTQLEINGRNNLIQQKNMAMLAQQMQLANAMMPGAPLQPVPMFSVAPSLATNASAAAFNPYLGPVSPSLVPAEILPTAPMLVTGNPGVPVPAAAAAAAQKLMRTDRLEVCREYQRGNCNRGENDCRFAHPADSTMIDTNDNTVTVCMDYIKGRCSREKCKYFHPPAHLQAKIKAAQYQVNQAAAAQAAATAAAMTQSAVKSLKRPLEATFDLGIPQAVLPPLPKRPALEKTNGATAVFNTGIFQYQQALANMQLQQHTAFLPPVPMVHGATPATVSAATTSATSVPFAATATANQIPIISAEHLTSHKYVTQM

[1] = test system: T2, GST-MBNL1-41 full length (Homo sapiens), Q9NR56-5; conditions: GST has no significant influence on binding; same buffer
T2 sequence: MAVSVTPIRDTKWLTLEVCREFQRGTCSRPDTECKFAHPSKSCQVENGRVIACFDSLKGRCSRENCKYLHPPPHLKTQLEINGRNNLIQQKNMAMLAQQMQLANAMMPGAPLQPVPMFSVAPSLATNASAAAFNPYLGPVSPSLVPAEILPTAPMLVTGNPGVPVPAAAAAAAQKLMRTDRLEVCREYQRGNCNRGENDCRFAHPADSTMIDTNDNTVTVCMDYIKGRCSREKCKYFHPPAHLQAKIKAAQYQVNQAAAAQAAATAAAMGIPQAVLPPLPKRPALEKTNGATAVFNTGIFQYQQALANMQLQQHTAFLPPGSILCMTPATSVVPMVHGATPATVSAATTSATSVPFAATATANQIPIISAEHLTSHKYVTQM

[2] = test system: T3, GST-MBNL1-41-del105 deletion of C-terminal 105 aa (all four zinc fingers kept) (Homo sapiens), Q9NR56-5; conditions: C-terminal deletion has no significant influence on binding; same buffer
T3 sequence: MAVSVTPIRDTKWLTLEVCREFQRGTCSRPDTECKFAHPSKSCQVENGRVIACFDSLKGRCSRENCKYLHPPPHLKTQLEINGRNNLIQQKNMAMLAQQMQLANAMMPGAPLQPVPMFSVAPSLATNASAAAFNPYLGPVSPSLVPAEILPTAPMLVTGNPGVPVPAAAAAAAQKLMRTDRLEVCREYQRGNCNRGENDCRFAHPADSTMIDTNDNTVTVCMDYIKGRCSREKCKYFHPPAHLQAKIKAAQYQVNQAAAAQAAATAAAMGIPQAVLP

[3] = test system: T4, MBNL1-41 full length, GST cleaved (Homo sapiens), Q9NR56-5; conditions: nitrocellulose filter; 50 mM Tris pH 8.0, 50 mM NaCl, 50 mM KCl, 1 mM Mg, 0.1 mM DTT; value stated for all forms tested
T4 sequence: T2 sequence

Measured: Kd

CUG [poly(CUG)109]
10 nM: MBNL1-42 (Homo sapiens) | [1] | [2] | [3]
